Assay results as given in the Human Domainome abundance scans (Beltran et al. 2025).
± gives the uncertainty stated by the source.

B1: POU domain, class 2, transcription factor 1, residues 285 to 354; numbered along this chain, P14859 (parent)
chain: LEELEQFAKTFKQRRIKLGFTQGDVGLAMGKLYGNDFSQTTISRFEALNLSFKNMCKLKPLLEKWLNDAE

Variants of: B1
Assay: abundance fitness (aPCA) (normalised: wild type 0, dead -1); higher = more abundant; growth selection in yeast, the domain comes from the species named
Conditions: Homo sapiens

Variant | abundance fitness
LEELEQFAKTFKQRRIKLGFTQGDVGLKMGKLYGNDFSQTTISRFEALNLSFKNMCKLKPLLEKWLNDAE [A28K] | -0.008 ± 0.033
LEELEQFAKTFKQRRIKLGFTQGDVGLFMGKLYGNDFSQTTISRFEALNLSFKNMCKLKPLLEKWLNDAE [A28F] | -0.11 ± 0.021
LEELEQFAKTFKQRRIKLGFTQGDVGLHMGKLYGNDFSQTTISRFEALNLSFKNMCKLKPLLEKWLNDAE [A28H] | -0.059 ± 0.04
LEELEQFAKTFKQRRIKLGFTQGDVGLLMGKLYGNDFSQTTISRFEALNLSFKNMCKLKPLLEKWLNDAE [A28L] | -0.04 ± 0.022
LEELEQFAKTFKQRRIKLGFTQGDVGLNMGKLYGNDFSQTTISRFEALNLSFKNMCKLKPLLEKWLNDAE [A28N] | -0.061 ± 0.03
LEELEQFAKTFKQRRIKLGFTQGDVGLMMGKLYGNDFSQTTISRFEALNLSFKNMCKLKPLLEKWLNDAE [A28M] | -0.043 ± 0.024
LEELEQFAKTFKQRRIKLGFTQGDVGLIMGKLYGNDFSQTTISRFEALNLSFKNMCKLKPLLEKWLNDAE [A28I] | -0.054 ± 0.024
LEELEQFAKTFKQRRIKLGFTQGDVGLPMGKLYGNDFSQTTISRFEALNLSFKNMCKLKPLLEKWLNDAE [A28P] | -0.56 ± 0.041
LEELEQFAKTFKQRRIKLGFTQGDVGLSMGKLYGNDFSQTTISRFEALNLSFKNMCKLKPLLEKWLNDAE [A28S] | -0.042 ± 0.02
LEELEQFAKTFKQRRIKLGFTQGDVGLDMGKLYGNDFSQTTISRFEALNLSFKNMCKLKPLLEKWLNDAE [A28D] | -0.079 ± 0.11
LEELEQFAKTFKQRRIKLGFTQGDVGLEMGKLYGNDFSQTTISRFEALNLSFKNMCKLKPLLEKWLNDAE [A28E] | -0.508 ± 0.43
LEELEQFAKTFKQRRIKLGFTQGDVGLVMGKLYGNDFSQTTISRFEALNLSFKNMCKLKPLLEKWLNDAE [A28V] | -0.052 ± 0.11
LEELEQFAKTFKQRRIKLGFTQGDVGLQMGKLYGNDFSQTTISRFEALNLSFKNMCKLKPLLEKWLNDAE [A28Q] | 0.048 ± 0.05
LEELEQFAKTFKQRRIKLGFTQGDVGLTMGKLYGNDFSQTTISRFEALNLSFKNMCKLKPLLEKWLNDAE [A28T] | -0.01 ± 0.024
LEELEQFAKTFKQRRIKLGFTQGDVGLAKGKLYGNDFSQTTISRFEALNLSFKNMCKLKPLLEKWLNDAE [M29K] | -0.748 ± 0.081
LEELEQFAKTFKQRRIKLGFTQGDVGLALGKLYGNDFSQTTISRFEALNLSFKNMCKLKPLLEKWLNDAE [M29L] | -0.016 ± 0.019
LEELEQFAKTFKQRRIKLGFTQGDVGLAGGKLYGNDFSQTTISRFEALNLSFKNMCKLKPLLEKWLNDAE [M29G] | -0.377 ± 0.041
LEELEQFAKTFKQRRIKLGFTQGDVGLAPGKLYGNDFSQTTISRFEALNLSFKNMCKLKPLLEKWLNDAE [M29P] | -0.903 ± 0.044
LEELEQFAKTFKQRRIKLGFTQGDVGLAFGKLYGNDFSQTTISRFEALNLSFKNMCKLKPLLEKWLNDAE [M29F] | -0.148 ± 0.027
LEELEQFAKTFKQRRIKLGFTQGDVGLAAGKLYGNDFSQTTISRFEALNLSFKNMCKLKPLLEKWLNDAE [M29A] | -0.145 ± 0.022

Variant | abundance fitness
LEELEQFAKTFKQRRIKLGFTQGDVGLACGKLYGNDFSQTTISRFEALNLSFKNMCKLKPLLEKWLNDAE [M29C] | -0.092 ± 0.049
LEELEQFAKTFKQRRIKLGFTQGDVGLAIGKLYGNDFSQTTISRFEALNLSFKNMCKLKPLLEKWLNDAE [M29I] | -0.006 ± 0.042
LEELEQFAKTFKQRRIKLGFTQGDVGLAEGKLYGNDFSQTTISRFEALNLSFKNMCKLKPLLEKWLNDAE [M29E] | -0.808 ± 0.085
LEELEQFAKTFKQRRIKLGFTQGDVGLAHGKLYGNDFSQTTISRFEALNLSFKNMCKLKPLLEKWLNDAE [M29H] | -0.689 ± 0.059
LEELEQFAKTFKQRRIKLGFTQGDVGLAQGKLYGNDFSQTTISRFEALNLSFKNMCKLKPLLEKWLNDAE [M29Q] | -0.497 ± 0.045
LEELEQFAKTFKQRRIKLGFTQGDVGLADGKLYGNDFSQTTISRFEALNLSFKNMCKLKPLLEKWLNDAE [M29D] | -0.727 ± 0.07
LEELEQFAKTFKQRRIKLGFTQGDVGFAMGKLYGNDFSQTTISRFEALNLSFKNMCKLKPLLEKWLNDAE [L27F] | 0.01 ± 0.038
LEELEQFAKTFKQRRIKLGFTQGDVGKAMGKLYGNDFSQTTISRFEALNLSFKNMCKLKPLLEKWLNDAE [L27K] | -0.052 ± 0.054
LEELEQFAKTFKQRRIKLGFTQGDVGNAMGKLYGNDFSQTTISRFEALNLSFKNMCKLKPLLEKWLNDAE [L27N] | -0.13 ± 0.072
LEELEQFAKTFKQRRIKLGFTQGDVGWAMGKLYGNDFSQTTISRFEALNLSFKNMCKLKPLLEKWLNDAE [L27W] | -0.106 ± 0.041
LEELEQFAKTFKQRRIKLGFTQGDVGYAMGKLYGNDFSQTTISRFEALNLSFKNMCKLKPLLEKWLNDAE [L27Y] | -0.113 ± 0.058
LEELEQFAKTFKQRRIKLGFTQGDVGVAMGKLYGNDFSQTTISRFEALNLSFKNMCKLKPLLEKWLNDAE [L27V] | 0.003 ± 0.026
LEELEQFAKTFKQRRIKLGFTQGDVGPAMGKLYGNDFSQTTISRFEALNLSFKNMCKLKPLLEKWLNDAE [L27P] | -0.31 ± 0.034
LEELEQFAKTFKQRRIKLGFTQGDVGHAMGKLYGNDFSQTTISRFEALNLSFKNMCKLKPLLEKWLNDAE [L27H] | 0.049 ± 0.034
LEELEQFAKTFKQRRIKLGFTQGDVGRAMGKLYGNDFSQTTISRFEALNLSFKNMCKLKPLLEKWLNDAE [L27R] | 0.016 ± 0.02
LEELEQFAKTFKQRRIKLGFTQGDVGTAMGKLYGNDFSQTTISRFEALNLSFKNMCKLKPLLEKWLNDAE [L27T] | -0.053 ± 0.067
LEELEQFAKTFKQRRIKLGFTQGDVGIAMGKLYGNDFSQTTISRFEALNLSFKNMCKLKPLLEKWLNDAE [L27I] | -0.005 ± 0.035
LEELEQFAKTFKQRRIKLGFTQGDVGQAMGKLYGNDFSQTTISRFEALNLSFKNMCKLKPLLEKWLNDAE [L27Q] | 0.003 ± 0.029
LEELEQFAKTFKQRRIKLGFTQGDVGMAMGKLYGNDFSQTTISRFEALNLSFKNMCKLKPLLEKWLNDAE [L27M] | 0 ± 0.035
